Measured values as given in patent publication US20250027068.
Substitutions are numbered along the chain they refer to.

B1: PRT-450 (protein)
chain: MVTSVWTKGVTPPTDFRKIVDGNIAYYHAPYKAGQGWYDITKAFDGGDDLLCGAATAGNMLHWWFDQNKDQIEAYLKEHPEKQKINFNGEQMFDVKEAIDTKDDQTNSELFNYFKEKAFPYLSTKHLGVFPDHVLDMFINGYRLSLTNHGPTPVKEGSKDPRGGIFDAVFTRGDQSKLLTSRHDLKNKTLKEISDLIKQELTEGKALALSHTYANVRINHVINLWGADFDSNGNLEAIYVTDSDSNASIGMKKYFVGVNSAGKVAISAKEIEDDNIGAQVLGLFTLSTGQDIWNQTNLEHHHHHH
B2: PRT-470 (protein)
chain: MVTSVWTKGVTPPTDFIYGEDVLHAPYKAGQGWYDITKTFNGKDDLLCGAATAGNMLHWWFDQNKEQIENYLKKHPEKQKINFNGEQMFDVKEAIDTKDSQLDSKLFEYFKEKAFPYLSTKHLGVFPDHVIDMFINGYRLSLTNHGPTPVKRGSKDPRGGIFDAVFTRGDQSKLLTNRHDFKEKTLKEISDLIKQELTEGKALGISHTYANVRINHVINLWGADFDAEGNLEAIYVTDSDSNASIGMKKYFVGVNSNGKVAISAKEIEEDNIGAQVLGLFTLSTGQDIWNQTNLEHHHHHH
B3: PRT-492 (protein)
chain: MVTSVWTKGVTPPTDFRKIVDGNIAYYHAPYKAGQGWYDITKAFDGGDNLLCGAATAGNMLHWWFDQNKEQIENYLKKHPEKQKIIFNNQELFDLKAAIDTKDSQTNSELFNYFKEKAFPYLSTKHLGVFPDHVIDMFINGYRLSLTNHGPTPVKRGSKDKRGGIFDAVFTRGVQSKLLTNRHDLKNKTLKEISDLIKQELTEGKALGISHTYANVRINHVINLWGADFDAEGNLEAIYVTDSDTNASIGMKKYFVGVNSNGKVAISAKEIEEDNIGAQVLGLFTLSTGQDIWNQTNLEHHHHHH
B4: PRT-489 (protein)
chain: MVTSVWTKGVTPPANFTQGEDVFHAPYVANQGWYDITKTFNGKDNLLCGAATAGNMLHWWFDQNKDQIERYLKEHPEKQKIIFNNQELFDLKAAIDTKDSQTDSKLFEYFKEKAFPYLSTKHLGVFPDHVLDMFINGYRLSLTNHGPTPVKEGSKDKRGGIFDAVFTRGVQSKLLTSRHDLKNKTLKEISDLIKQELTEGKALGLSHTYANVRINHVINLWGADFDSEGNLKAIYVTDSDTNASIGMKKYFVGVNSAGKVAISAKEIKEDNIGAQVLGLFTLSTGQDIWNQTNLEHHHHHH
B5: PRT-462 (protein)
chain: B1 chain with A74R, D104S, A208G, N232E, E236K, E272K, D273E
B6: PRT-515 (protein)
chain: MITSVWTKGVTPPTDFIKGEDVFHAPYKAGQGWYDITKAFDGGDDLLCGAATAGNMLHWWFDQNKEEIEAYLKKHPEKQKIMFGDQELLDVRKVINTKDSQTNSALFNYFKDKAFPNLSARRLGVMPDLVLDMFINGYYLNVYKTQTTDVNRQEQTKDRRGGIFDAVFGRGDQTKLLTERHDLKNKTLNEISQLIKQELTEGKALGLSHTYANVRINHVINLWGADFDAEGNLEAIYVTDSDSNASIGMKKYFVGVNSAGKVAISAKEIKEDNIGAQVLGLFTLSTGQKIWNKTNLEHHHHHH
B7: PRT-510 (protein)
chain: MITSVWTKGVTPPTDFRKIVDGNIAYYHAPYKAGQGWYDITKAFDGGDDLLCGAATAGNMLHWWFDQNKEEIEAYLKKHPEKQKIMFGDQELLDVRKVINTKDSQTNSALFNYFKDKAFPNLSARRLGVMPDLVLDMFINGYYLNVYKTQTTDVNRTYQTKDRRGGIFDAVFTRGDQSKLLTERHDLKNKTLKEISDLIKQELTEGKALGLSHTYANVRINHVINLWGADFDSNGNLEAIYVTDSDSNASIGMKKYFVGVNSAGKVAISAKEIKEDNIGAQVLGLFTLSTGQDIWNQTNLEHHHHHH
B8: PRT-521 (protein)
chain: MVTSVWTKGVTPPADFTQGEDVFHAPYVANQGWYDITKTFNGKDNLLCGAATAGNMLHWWFDQNKEYIEAYLKKHPEKQKIIFNNQELFDLKAAINTKGSQKNSELFNYFRDKAFPNLSARRLGVFPDLVLDMFINGYYLNVTKTQTTDVNRTYQEKDKRGGIFDAVFTRGVQSKLLTSRHDLKNKGLKEISDLIKQELTEGKALGLSHTYANVRINHVINLWGADFDSDGNLKAIYVTDSDTNASIGMKKYFVGVNSAGKVAISAKEIKEDNIGAQVLGLFTLSTGQDIWNQTNLEHHHHHH
B9: PRT-520 (protein)
chain: MVTSVWTKGVTPPTDFRKIVDGNIAYYHAPYKAGQGWYDITKAFDGGDNLLCGAATAGNMLHWWFDQNKEYIEAYLKKHPEKQKIIFNNQELFDLKAAINTKGSQKNSELFNYFRDKAFPNLSARRLGVFPDLVLDMFINGYYLNVTKTQTTDVNRTYQEKDKRGGIFDAVFTRGVQSKLLTSRHDLKNKGLKEISDLIKQELTEGKALGLSHTYANVRINHVINLWGADFDSDGNLKAIYVTDSDTNASIGMKKYFVGVNSAGKVAISAKEIKEDNIGAQVLGLFTLSTGQDIWNQTNLEHHHHHH
B10: PRT-636 (protein)
chain: MQITSVWTKGVTPLTMDQFRNYNYDVIHAPYKPGQGWYDITKAFDGKDNLLCGAATAGNMLHWWFDQNKTEIEAYLSKHPEKQKIIFNNQELFDLKAAIDTKDSQTNSQLFNYFRDKAFPNLSARQLGVMPDLVLDMFINGYYLNVFKTQSTDVNRPYQDKDKRGGIFDAVFTRGDQTTLLTARHDLKNKGLNDISTIIKQELTEGKALALSHTYANVSISHVINLWGADFNAEGNLEAIYVTDSDANASIGMKKYFVGINAHGHVAISAKKIEGENIGAQVLGLFTLSSGKDIWQKLSLEHHHHHH
B11: PRT-447 (protein)
chain: MVTSVWTKGVTPPTDFIKGEDVFHAPYKAGQGWYDITKAFDGGDDLLCGAATAGNMLHWWFDQNKDQIEAYLKEHPEKQKINFNGEQMFDVKEAIDTKDDQTNSELFNYFKEKAFPYLSTKHLGVFPDHVLDMFINGYRLSLTNHGPTPVKEGSKDPRGGIFDAVFTRGDQSKLLTSRHDFKEKTLKEISDLIKQELTEGKALALSHTYANVRINHVINLWGADFDSNGNLEAIYVTDSDSNASIGMKKYFVGVNSAGKVAISAKEIEDDNIGAQVLGLFTLSTGQDIWNQTNLEHHHHHH
B12: PRT-484 (protein)
chain: MVTSVWTKGVTPPTDFRKIVDGNIAYYHAPYKAGQGWYDITKAFDGGDNLLCGAATAGNMLHWWFDQNKDQIEAYLKEHPEKQKIIFNNQELFDLKAAIDTKDDQTNSELFNYFKEKAFPYLSTKHLGVFPDHVLDMFINGYRLSLTNHGPTPVKEGSKDKRGGIFDAVFTRGVQSKLLTSRHDLKNKTLKEISDLIKQELTEGKALALSHTYANVRINHVINLWGADFDSNGNLEAIYVTDSDTNASIGMKKYFVGVNSAGKVAISAKEIEDDNIGAQVLGLFTLSTGQDIWNQTNLEHHHHHH
B13: PRT-472 (protein)
chain: B2 chain with F181L, E183N
B14: PRT-473 (protein)
chain: MVTSVWTKGVTPPTDFRKIVDGNIAYYHAPYKAGQGWYDITKTFNGKDDLLCGAATAGNMLHWWFDQNKEQIENYLKKHPEKQKINFNGEQMFDVKEAIDTKDSQLDSKLFEYFKEKAFPYLSTKHLGVFPDHVIDMFINGYRLSLTNHGPTPVKRGSKDPRGGIFDAVFTRGDQSKLLTNRHDFKEKTLKEISDLIKQELTEGKALGISHTYANVRINHVINLWGADFDAEGNLEAIYVTDSDSNASIGMKKYFVGVNSNGKVAISAKEIEEDNIGAQVLGLFTLSTGQDIWNQTNLEHHHHHH

Molecular target: pooled human IgG (human IgG1,2,3 and 4)

In order of falling Enzyme Activity Endpoint Assay (purified): Fab′2:
1. B14  1340 ng/µL
2. B13  1130 ng/µL
3. B2  1080 ng/µL
4. B11  376 ng/µL
5. B1  300 ng/µL
6. B9  271 ng/µL
7. B12  143 ng/µL
8. B3  54 ng/µL
9. B7  51 ng/µL
10. B10  12 ng/µL
11. B4  0 ng/µL
12. B5  0 ng/µL
13. B6  0 ng/µL
14. B8  0 ng/µL

In order of falling Enzyme Activity Endpoint Assay (purified): Fc:
1. B13  386 ng/µL
2. B14  384 ng/µL
3. B2  363 ng/µL
4. B1  282 ng/µL
5. B12  277 ng/µL
6. B9  265 ng/µL
7. B11  255 ng/µL
8. B3  207 ng/µL
9. B7  29 ng/µL
10. B10  17 ng/µL
11. B8  13 ng/µL
12. B4  0 ng/µL
13. B5  0 ng/µL
14. B6  0 ng/µL

In order of falling Enzyme Activity Endpoint Assay (purified): IgG:
1. B9  470 ng/µL
2. B11  445 ng/µL
3. B3  362 ng/µL
4. B1  227 ng/µL
5. B12  173 ng/µL
6. B14  59 ng/µL
7. B2  0 ng/µL
8. B4  0 ng/µL
9. B5  0 ng/µL
10. B6  0 ng/µL
11. B7  0 ng/µL
12. B8  0 ng/µL
13. B10  0 ng/µL
14. B13  0 ng/µL

In order of rising Enzyme Activity Endpoint Assay (purified): scIgG:
1. B2  0 ng/µL
2. B4  0 ng/µL
3. B5  0 ng/µL
4. B6  0 ng/µL
5. B7  0 ng/µL
6. B8  0 ng/µL
7. B10  0 ng/µL
8. B11  0 ng/µL
9. B13  0 ng/µL
10. B14  0 ng/µL
11. B9  475 ng/µL
12. B1  481 ng/µL
13. B12  973 ng/µL
14. B3  1020 ng/µL
